16 sequences from the nanobody polyreactivity screen of Harvey et al. (2022) can be followed below.

This series can be described thus: yeast display, Sf9 membrane polyspecificity reagent, FACS + sequencing; frameworks hold sequencing errors. The gist of the method:
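Nanobodies came from a synthetic yeast display library in Saccharomyces cerevisiae BJ5465, induced with galactose for 36–48 hours and stained for 1 hour at 4 °C with 10% biotinylated, detergent-solubilized Sf9 membrane reagent. Cells were enriched on streptavidin microbeads and then FACS-sorted, with low and high (top ~1%) gates set on anti-HA fluorescence for expression and streptavidin fluorescence for reagent binding. Each polyreactivity label reflects the gate a clone came from. Genes were amplified by colony PCR, sequenced by MiSeq 2 × 250 and filtered by CDR length.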
Turning to “QVQLVESGGGLVQAGGSLRLSCAASGSIFYYNAMGWYRQAPGKERELVAAISRSGGSTYYADSVKGRFTISRDNAKNTVYLQMNSLKPEDTAVYYCAARPNFTPYEYGYWGQGTQVTVSS”, the “polyreactivity (PSR sort gate)” value was “low polyreactivity”.

As for “QVQLVESGGGLVQAGGSLRLSCAASGSIFYYNAMGWYRQAPGKERELVAAISWGDGITYYADSVKGRFTISRDNAKNTVYLQMNSLKPEDTAVYYCAVDYYYLAFEYWGQGTQVTVSS”, the “polyreactivity (PSR sort gate)” value was “high polyreactivity”.

For the sequence “QVQLVESGGGLVQAGGSLRLSCAASGSIFYYNAMGWYRQAPGKERELVAAITSGGSTHYADSVKGRFTISRDNAKNTVYLQMNSLKPEDTAVYYCAADVWYKYHRSAIIVEFDYWGQGTQVTVSS”, the “polyreactivity (PSR sort gate)” value is given as “low polyreactivity”.

For the sequence “QVQLVESGGGLVQAGGSLRLSCAASGSIFYYNGMGWYRHAPGKERELVASISRGGGTNYADSVKGRFTISRDNAKNTVYLQMNSLKPEDTAVYYCNARYPRSSPFGYWGLGTQVTVSS”, the “polyreactivity (PSR sort gate)” value is reported as “high polyreactivity”.

On to “QVQLVESGGGLVQAGGSLRLSCAASGSIFYYNTMAWYRQAPGKERELVAAIRQRGTSTYYADSVKGRFTISRDNAKNTVYLLMISLKPEDTAVYYCAAVTRGQSAYSYDYWGQGTKVTVSS”, for which the “polyreactivity (PSR sort gate)” value is given as “high polyreactivity”.

Take “QVQLVESGGGLVQAGGSLRLSCAASGSIFYYNTMGWSRQSPGKERELVAAINTSGGSTYYADSVKGRFTISRDNATNTDYVQLNSLKPEDTAVYYCAVRYRYRFVAKGYWGQGTQVTVSS”: the “polyreactivity (PSR sort gate)” value is reported as “high polyreactivity”.

Regarding “QVQLVESGGGLVQAGGSLRLSCAASGSIFYYNTMGWYRQAPGKERELVAAITSTGRTNYADSVKGRFTISRDNAKNTVYLQMNSLKPEDSAVYYCAKRRFGDGDYWGQGTQVTVSS”, the “polyreactivity (PSR sort gate)” value is listed as “low polyreactivity”.

Turning to “QVQLVESGGGLVQAGGSLRLSCAASGSIFYYYAMGLYRQAPGKERELVAAITRRGGNTYYADSVKGRFTISRDNAKNTVYLQMNSLKPEDTAVYYCNAPGFAWYTTKYDYWGQGTQVTVSS”, the “polyreactivity (PSR sort gate)” value is “low polyreactivity”.

Consider “QVQLVESGGGLVQAGGSLRLSCAASGSIFYYYAMGWYRQAPGKERELVAAITYSGGSTHYADSVKGRFTISRDNAKNTVYLQMNSLKPDDTAVFYCAVYYRSHSGSRIYYWGQGTQVTVSS”, for which the “polyreactivity (PSR sort gate)” value is “high polyreactivity”.

Consider “QVQLVESGGGLVQAGGSLRLSCAASGSIFYYYAMGWYRQAPGKERELVAGITVSGGRTYYADSVKGRFTISRDNAKNTVYLQMNSLKPEDTAVYYCAADGRAKYDYWGQGTQVTVSS”, for which the “polyreactivity (PSR sort gate)” value is “low polyreactivity”.

Consider “QVQLVESGGGLVQAGGSLRLSCAASGSIFYYYAMGWYRQAPGKVRELVASISSGGRTYYADSVKGRFTISRDNAENTLYLQLNSLKPEDSAVYYCAVEVWWWEGDYDYWGLGTQVTVSS”, for which the “polyreactivity (PSR sort gate)” value is on record as “high polyreactivity”.

For the sequence “QVQLVESGGGLVQAGGSLRLSCAASGSIFYYYTMGWYRQAPGKERELVAAITWSGSTYYADSVKGRFTISRDNAKNTVYLQMNSLKPEDTAVYYCNADALIAAYKYFPYTYRFNYWGQGTQVTVSS”, the “polyreactivity (PSR sort gate)” value was “low polyreactivity”.

Take “QVQLVESGGGLVQAGGSLRLSCAASGSIGVYAMGWYRQSPGKERELVAGISRSGSSTFFADSVKGRFTISRDNAKNTVYLQMNSLKPEDTAVYYCTAYTYNYRQGSEYYYWGQGTQVTVSS”: the “polyreactivity (PSR sort gate)” value is listed as “high polyreactivity”.

“QVQLVESGGGLVQAGGSLRLSCAASGSIGYMGWYRQAPGKERELVAFITSSGGGTYYADSVKGRFTISRDNAKNTVYLQMNSLKPEDTAVYYCATKSSAGYDYWGQGTQVTVSS”: the “polyreactivity (PSR sort gate)” value is listed as “low polyreactivity”.

With “QVQLVESGGGLVQAGGSLRLSCAASGSIIAGYAMGWYRQAPGKERELVAAISQRGTSTYYADSVKGRFTISRDIAKNTVYLQMNSLKPEDTSVYYCAARVVSRMDYWGQGTQVTVSS”, the “polyreactivity (PSR sort gate)” value is “high polyreactivity”.

Turning to “QVQLVESGGGLVQAGGSLRLSCAASGSIIDLNAMGWYRQAPGKERDLVAAISSGGGTYYADSVKGRFTISRDNAKNNVYLQMNSLKPEDTAVYYCAAIGYRVYRYYRGRTYDYWGQGTQVTVSS”, the “polyreactivity (PSR sort gate)” value is recorded as “high polyreactivity”.
